From paper PMC4934914, “Crystal Structure of Bacillus subtilis Cysteine Desulfurase SufS and Its Dynamic Interaction with Frataxin and Scaffold Protein SufU” (PLoS ONE, 2016)

B1: Bacillus subtilis scaffold protein SufU (natural protein)
chain: MSFNANLDTLYRQVIMDHYKNPRNKGVLNDSIVVDMNNPTCGDRIRLTMKLDGDIVEDAKFEGEGCSISMASASMMTQAIKGKDIETALSMSKIFSDMMQGKEYDDSIDLGDIEALQGVSKFPARIKCATLSWKALEKGVAKEEGGN
notes: Fe-S cluster scaffold protein SufU of Bacillus subtilis; also called BsSufU
B4: Bacillus subtilis cysteine desulfurase SufS (enzyme)
chain: MNITDIREQFPILHQQVNGHDLVYLDSAATSQKPRAVIETLDKYYNQYNSNVHRGVHTLGTRATDGYEGAREKVRKFINAKSMAEIIFTKGTTTSLNMVALSYARANLKPGDEVVITYMEHHANIIPWQQAVKATGATLKYIPLQEDGTISLEDVRETVTSNTKIVAVSHVSNVLGTVNPIKEMAKIAHDNGAVIVVDGAQSTPHMKIDVQDLDCDFFALSSHKMCGPTGVGVLYGKKALLENMEPAEFGGEMIDFVGLYESTWKELPWKFEAGTPIIAGAIGLGAAIDFLEEIGLDEISRHEHKLAAYALERFRQLDGVTVYGPEERAGLVTFNLDDVHPHDVATVLDAEGIAVRAGHHCAQPLMKWLDVTATARASFYLYNTEEEIDKLVEALQKTKEYFTNVF
modifications: pyridoxal-5'-phosphate bound to Lys224 as an aldimine; Cys361-persulfide (in the crystal)
notes: cysteine desulfurase SufS of Bacillus subtilis; The structure 'could be built to completeness'; also called BsSufS

Assays:
[1] = target: B4; experiment: HDX-MS; 60 μM of each component in 25 mM Tris-Cl pH 7.5, 100 mM NaCl; exchange in D2O buffer at 25°C for 15, 30, 60 or 600 s; online pepsin digestion; settings: both partners purified
[2] = target: B4; experiment: MST; labelled BsFra (0.25 μM) mixed 1:1 with a dilution series of the partner (560 μM to 0.030 μM); 25 mM Tris-Cl, 100 mM NaCl, 10 mM 2-mercaptoethanol, pH 7.5; 25°C; Hill model; average of three measurements; settings: both partners purified
[3] = target: B1; experiment: as above; settings: both partners purified
BsSufS/BsSufU complex = target: T1, BsSufS/BsSufU complex (Bacillus subtilis, UniProt O32164 1-406; O32163 1-147); experiment: as above; settings: both partners purified
T1 construct: cysteine desulfurase SufS of Bacillus subtilis, as the chain of m1; scaffold protein SufU of Bacillus subtilis, as the chain of m2; SufS is described as a homodimer; also called BsSufU/BsSufS; SufS/SufU complex; copies: 2 +

[4] = target: B1; experiment: HDX-MS; 60 μM of each component in 25 mM Tris-Cl pH 7.5, 100 mM NaCl; exchange in D2O buffer at 25°C for 15, 30, 60 or 600 s; online pepsin digestion; settings: both partners purified
[5] = target: the molecule itself; experiment: crystal structure; BsSufS crystallised at 20 mg/ml in 0.1 M HEPES pH 7.5, 50% (v/v) PEG 400, 20°C; one molecule in the asymmetric unit, homodimer across the crystallographic symmetry axis; 1.7 Å

B1
binding result [1]: binds

B2: fluorophore-labelled BsFra (natural protein, Bacillus subtilis)
chain: MDVFSEYLAGIADPFHRERTEEVLTWIKNKYPNLHTEIKWNQPMFTDHGTFIIGFSVSKKHLAVAPEKVTIAHVEDDIVKAGYDYTEQLIRIPWNGPVDYTLLEKMIEFNILDKADCSTFWRK
modifications: labelled with the Monolith NT.115 Protein Labeling Kit RED MALEIMID (cysteine-reactive)
notes: frataxin homolog Fra (formerly YdhG) of Bacillus subtilis, as the chain of m3; Same protein as m3, with a red fluorophore on cysteine for MST; also called labeled BsFra; fluorophore-tagged frataxin
Kd [2]: 50.6 ± 17.4 µM
Kd [3]: 57.4 ± 13.8 µM
Kd (BsSufS/BsSufU complex): 32.5 ± 3.6 µM

B3: Bacillus subtilis frataxin homolog Fra (natural protein)
chain: MDVFSEYLAGIADPFHRERTEEVLTWIKNKYPNLHTEIKWNQPMFTDHGTFIIGFSVSKKHLAVAPEKVTIAHVEDDIVKAGYDYTEQLIRIPWNGPVDYTLLEKMIEFNILDKADCSTFWRK
notes: frataxin homolog Fra (formerly YdhG) of Bacillus subtilis; Unlabelled form, used in H/DX and activity assays; also called BsFra; YdhG (former name)
binding result [1]: binds
binding result [4]: binds

B4
stoichiometry N [5]: 2
